According to patent publication US20140271646A1 (UNITED STATES OF AMERICA AS REPRESENTED BY THE SECRETARY …, published 2014):

Key:
human IGF-II [1] = molecular target: T1, human IGF-II (human, UniProt P01344 25-91); experiment: ELISA, Fab on hIGF-II
T1 construct: mature; It was biotinylated for the flow cytometry assays; also called hIGF-II; insulin-like growth factor II

mouse IGF-II = molecular target: T2, mouse IGF-II (mouse, UniProt P09535 25-91); experiment: ELISA-based competition assay
T2 construct: also called mIGF-II

human IGF-II [2] = molecular target: T1, human IGF-II; experiment: ELISA on hIGF-II
Description: (§1) ELISA was performed as described previously (Chen et al., 2008, supra). Bound Fabs and eAds were detected by HRP-conjugated mouse anti-FLAG tag antibody. The antibody-Fc fusion proteins binding to IGF-II directly coated on 96-well plates were detected by HRP-conjugated goat anti-human IgG (Fc-specific) antibody. […] The half-maximal binding (EC₅₀) was calculated by fitting the data to the Langmuir adsorption isotherm.

human IGF-II [3] = molecular target: T1, human IGF-II; experiment: phage library panned on hIGF-II, semELISA screening
Description: The PCR products were gel-purified, digested with SfiI, and gel-purified again. The purified fragments were then cloned into pComb3X linearized by SfiI. A phage library was prepared by electroporation of Escherichia coli (E. coli) strain TG1 electroporation-competent cells (Stratagene, La Jolla, Calif.) with desalted and concentrated ligation, as described previously (Chen et al., 2008, J Mol Biol 382:779-89).

human IGF-II [4] = molecular target: T1, human IGF-II; experiment: ELISA, eAd on hIGF-II
Description: as §1

human IGF-II [5] = molecular target: T1, human IGF-II; experiment: ELISA, hIGF-II coated on the plate
Description: The half-maximal binding (EC₅₀) was calculated by fitting the data to the Langmuir adsorption isotherm.
as §1

human IGF-II [6] = molecular target: T1, human IGF-II; experiment: SPR, Biacore X100, antibody amine-coupled to a CM5 chip, hIGF-II as analyte, monovalent binding model
Description: ELISA was performed by coating IGF-II on 96-well plates. Bound antibodies were detected by HRP-conjugated goat anti-human IgG (Fc-specific) antibody. SPR analysis was performed on Biacore X100 by according to the manufacturer's instructions.
The binding kinetics of the antibodies was assessed by SPR analysis on Biacore X100 (GE Healthcare) according to the manufacturer's instructions. Briefly, antibodies were diluted in sodium acetate (pH 5.0) and immobilized directly onto a CM5 sensor chip with standard amine coupling method. The reference cell was injected with N-hydroxysuccinimide/1-ethyl-3-(3-dimethyaminopropy) carbodiimide and ethanolamine without injection of IGF-II. IGF-II was diluted with running buffer HBS-EP (100 mM HEPES, pH 7.4, 1.5 M NaCl, 30 mM EDTA, 0.5% surfactant 20). […] The kinetic constants were calculated from the sensorgrams fitted with the monovalent binding model of the BiacoreX100 Evaluation software 2.0.

T1 sequence (P01344 25-91): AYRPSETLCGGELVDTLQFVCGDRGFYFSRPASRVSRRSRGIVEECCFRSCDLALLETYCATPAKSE
T2 sequence (P09535 25-91 limits assumed): as the sequence (P01344 25-91) above, with R3G, S5G, G22S, A32S, V35A, S36N counted along it

B1: Fab m610.27 (Fab, V domains shown)
VH: QVQLVQSGAEVKKPGASVKVSCKASGYTFTSYYMHWVRQAPGQGLEWMGIINPSGGSTSYAQKFQGRVTMTRDTSTSTVYMELSRLRSDDTAVYYCARDVQWLAYGMDVWGQGTTVTVSS
VL: DIQMTQSPSSLSASVGDRVTITCRASQSISSYLNWYQQKPGRAPDLLINAASSLQSGVPSRFSGSGSGTDFTLTISSLQPEDFATYFCQQSYSLPFTFGGGTKVEIKG
notes: Human Fab expressed in E. coli HB2151; also called m610.27 in Fab format
**Q.** How did the EC50 (human IGF-II [1]) turn out when B1 was run?
**A.** 5 nM

B2: m610 (Fab, V domains shown)
VH: QVQLVQSGAEVKKPGASVKVSCKASGYTFTSYYMHWVRQAPGQGLEWMGIINPSGGSTSYAQKFQGRVTMTRDTSTSTVYMELSRLRSDDTAVYYCARDVQWLAYGMDVWGQGTTVTVSS
VL: not shown
notes: also called Fab m610
**Q.** Does B2 bind (mouse IGF-II)?
**A.** binds

**Q.** And the EC50 (human IGF-II [2])?
**A.** 20 nM

B3: eAd m630.9 (VHH)
VHH: QVQLVQSGGGLVQPGGSLRLSCAASSFDFDYYEMSWVRQAPGQRLEWVAYISKSGGTKMYADSVKGRFTISRDNSKNTLYLQMNTLRAEDTAMYYCAKDRATCSGGRCYSFYYGMDVWGQGTLVTVSS
notes: Mutant of m630 selected from the random mutagenesis library panned on hIGF-II; not shown: C-terminal hexahistidine tag, and a FLAG tag used for detection
**Q.** Does B3 bind (human IGF-II [3])?
**A.** binds

B4: eAd m630.4 (VHH)
VHH: QVQLVQSGGGLVQPGGSLRLSCAASSFDFGYYEMSWVRQAPGQRLEWVAYISKSGGTKMYADSVKGRFTISRDNSKNTLYLQMNTLRAEDTAMYYCAKDRATCSGGRCYSFYYGMDVWGQGTLVTVSS
notes: as for B3
**Q.** Does B4 bind (human IGF-II [3])?
**A.** binds

B5: eAd m630 (VHH)
VHH: QVQLVQSGGGLVQPGGSLRLSCAASSFDFDYYEMSWVRQAPGQRLEWVAYISKSGGTKMYADSVKGRFTISRDNSKNTLYLQMNTLRAEDTAMYYCAKDRATCSGGSCYSFYYGMDVWGQGTLVTVSS
notes: Human engineered antibody domain (a single VH domain) expressed in E. coli HB2151; not shown: C-terminal hexahistidine tag, and a FLAG tag used for detection
**Q.** Which results are given for B5?
**A.** EC50 (human IGF-II [4]): 50 nM; binding result (mouse IGF-II): binds

B6: eAd m630.3 (VHH)
VHH: QVQLVQSGGGLVQPGGSLRLSCAASSFDFDYYEMSWVRQAPGQRLEWVAYISKSGGTKMYADSVKGRFTISRDNSKNTLYLQMNTLRAEDTAMYYCAKDRATCRGGRCYSFYYGMDVWGQGTLVTVSS
notes: not shown: C-terminal hexahistidine tag, and a FLAG tag used for detection
**Q.** For B6, which EC50 (human IGF-II [4]) is on record?
**A.** 2 nM

**Q.** And the “fold lower EC50 than m630” value (human IGF-II [4])?
**A.** 25 fold

B7: eAd m630.1 (VHH)
VHH: QVQLVQSGGGLVQPGGSLRLSCAASSFDFDYYEMSWVRQAPGQRLEWVAYISKSGGTKMYADSVKGRFTISRDNSRNTLYLQMNTLRAEDTAMYYCAKDRATCRGGSCYSFYHGMDVWGQGTLVTVSS
notes: as for B3
**Q.** Does B7 bind (human IGF-II [3])?
**A.** binds

B8: m660 (bispecific antibody, human IgG1, kappa)
heavy: not shown
light: QVQLVQSGGGLVQPGGSLRLSCAASSFDFDYYEMSWVRQAPGQRLEWVAYISKSGGTKMYADSVKGRFTISRDNSKNTLYLQMNTLRAEDTAMYYCAKDRATCRGGRCYSFYYGMDVWGQGTLVTVSSGGGGSGGGGSGGGGSRTVAAPSVFIFPPSDEQLKSGTASVVCLLNNFYPREAKVQWKVDNALQSGNSQESVTEQDSKDSTYSLSSTLTLSKADYEKHKVYACEVTHQGLSSPVTKSFNRGEC
notes: Produced in 293 free style cells; also called bispecific antibody m660
**Q.** With B8 as the binder, how does the “fold lower EC50 than IgG1 m610.7” value (human IGF-II [5]) read?
**A.** 3 fold

**Q.** And the Kd (human IGF-II [6])?
**A.** 0.136 nM
